Test results taken from paper PMC12767058.
pKd: −log10 of the molar value.

Target: K-TM protein used for the affinity measurement with hFL (human)
Assay: BLI; method not given; BLI is the only affinity method that the paper describes (Octet R8, SA chip, PBST); who was immobilised is not said

Work on “hFL lectin (mannose-binding lectin, human recombinant protein)” yielded a pKd of 7.31.
